This is an account of results in PMC2826812 (Biochemistry, 2010).

In assay [1] the target is rabbit skeletal muscle F-actin (rabbit) (UniProt P68135).
Assay [2] shares this target. The source holds these as a separate data set.
The target of assay [3] is acto-Myo1c^1IQ (pyr.actin-Myo1c^1IQ) (Rattus norvegicus, UniProt Q63355). It is filed as binding.

pKd: −log10 of the molar value.

On to “Myo1c^1IQ-G (from UniProt Q63355 1-725) (domain or fragment)”, for which the Km for actin of the steady-state actin-activated Mg2+-ATPase, pCa 4.6 in assay [1] is 0.28 μM.

In the case of “Myo1c^SAH-G (from UniProt Q63355 1-762; D3ZJP6 805-843) (domain or fragment)”, the in vitro motility: speed of actin filaments over surface-held myosin in assay [2] turned out to be 29 nm/s.

By pKd is commonly meant −log10 of the Kd, conventionally taken in molar units. A lower pKd goes with a large Kd. Turning to `Nc1ncnc2c1ncn2[C@@H]1O[C@H](COP(=O)(O)OP(=O)(O)O)[C@@H](O)[C@H]1O` [ADP], the negative-log Kd (pKd) in assay [3] is 5.76.
